The values that follow come from paper PMC4841080.

Common to all, as to settings: glycan lost; control: wild type
Series [1] is described as follows: Immunofluorescence co-staining with Golgi marker GRASP65.
The nature of series [2]: Western blot of Ni-NTA-concentrated conditioned medium. Background: In western blotting, separated proteins are transferred to a membrane and probed.
Series [3] in a line: Western blot of cell lysates.

B1: R-spondin1 (RSPO1): N137Q (protein)
parent chain: MRLGLCVVALVLSWTHLTISSRGIKGKRQRRISAEGSQACAKGCELCSEVNGCLKCSPKLFILLERNDIRQVGVCLPSCPPGYFDARNPDMNKCIKCKIEHCEACFSHNFCTKCKEGLYLHKGRCYPACPEGSSAANGTMECSSPAQCEMSEWSPWGPCSKKQQLCGFRRGSEERTRRVLHAPVGDHAACSDTKETRRCTVRRVPCPEGQKRRKGGQGRRENANRNLARKESKEAGAGSRRRKGQQQQQQQGTVGPLTSAGPA
Regarding B1, in series [1], the localisation_or_trafficking entry is “no change”. In addition, the expression_or_secretion result in series [2] and in series [3] was “increases” throughout.
